Two molecules from patent publication US20100087631A1 (Eli Lilly, published 2010) can be followed below.

The target of experiment [1] is recombinant human HGF (R&D Systems, catalog #294-HG/CF) (human) (UniProt P14210). Briefly: ELISA, human HGF coated on plate, isotype control at 1 ug/ml (column headed 510C2 HGF).
The target in experiment [2] is recombinant human GDF-11 (Peprotech, Inc., Cat. #120-11) (human) (UniProt O95390). Briefly: ELISA, human GDF-11 coated on plate, isotype control at 1 ug/ml (column headed C12 GDF-11).
The target in experiment [3] is recombinant human HGF (R&D Systems, catalog #294-HG/CF) (human) (UniProt P14210). Briefly: ELISA, human HGF coated on plate, isotype control at 1 ug/ml (column headed C12 HGF).
Experiment [4] addresses human GDF-8 (human) (UniProt O14793). Description: ELISA, human GDF-8 coated on plate, isotype control at 1 ug/ml (column headed 510C2 GDF-8).
Experiment [5] addresses recombinant human GDF-11 (Peprotech, Inc., Cat. #120-11) (human) (UniProt O95390). Description: ELISA, human GDF-11 coated on plate, isotype control at 1 ug/ml (column headed 510C2 GDF-11).
For experiment [6], the target named is human GDF-8 (human) (UniProt O14793). Briefly: ELISA, human GDF-8 coated on plate, isotype control at 1 ug/ml (column headed C12 GDF-8).
The target in experiment [7] is T1, recombinant mouse myostatin (R&D systems, Cat. #788-G8/CF) (mouse, UniProt O08689 268-376).
T1 construct: Bought protein; also called GDF-8; myostatin (R&D Systems 788-G8)
T1 sequence: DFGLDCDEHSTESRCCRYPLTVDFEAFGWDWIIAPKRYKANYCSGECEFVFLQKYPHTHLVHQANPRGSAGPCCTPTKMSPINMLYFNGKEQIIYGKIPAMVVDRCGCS
Briefly: ELISA, GDF-8 coated on plate (GDF-8 down), Fab titrated, anti-kappa AP detection.

recombinant human HGF (R&D Systems, catalog #294-HG/CF) (human), sequence (P14210 32-728 limits assumed): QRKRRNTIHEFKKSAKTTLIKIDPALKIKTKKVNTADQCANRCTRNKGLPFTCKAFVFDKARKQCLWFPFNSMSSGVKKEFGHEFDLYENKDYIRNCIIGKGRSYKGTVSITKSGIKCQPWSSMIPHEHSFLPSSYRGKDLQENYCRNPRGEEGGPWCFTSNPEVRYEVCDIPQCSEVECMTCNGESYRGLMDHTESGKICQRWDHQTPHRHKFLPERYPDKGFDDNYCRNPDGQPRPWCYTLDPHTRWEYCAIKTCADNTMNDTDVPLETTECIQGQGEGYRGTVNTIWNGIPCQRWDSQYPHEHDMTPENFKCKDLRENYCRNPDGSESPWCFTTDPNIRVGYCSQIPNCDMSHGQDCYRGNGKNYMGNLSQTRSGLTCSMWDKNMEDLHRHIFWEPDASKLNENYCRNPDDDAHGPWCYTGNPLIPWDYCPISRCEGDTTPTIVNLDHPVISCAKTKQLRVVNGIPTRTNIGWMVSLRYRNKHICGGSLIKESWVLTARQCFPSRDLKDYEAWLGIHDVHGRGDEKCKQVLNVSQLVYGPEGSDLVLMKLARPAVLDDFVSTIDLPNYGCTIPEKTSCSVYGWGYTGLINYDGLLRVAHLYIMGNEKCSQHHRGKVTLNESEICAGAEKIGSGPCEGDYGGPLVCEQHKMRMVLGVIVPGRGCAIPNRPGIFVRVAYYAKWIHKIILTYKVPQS
recombinant human GDF-11 (Peprotech, Inc., Cat. #120-11) (human), sequence (O95390 299-407 limits assumed): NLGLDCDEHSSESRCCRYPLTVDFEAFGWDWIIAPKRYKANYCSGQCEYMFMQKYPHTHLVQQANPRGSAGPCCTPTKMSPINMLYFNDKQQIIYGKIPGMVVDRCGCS

As for isotype control antibody, the average absorbance at 490 nm in experiment [1] is 0.0804 OD 490 nm; in experiment [2], 0.0487 OD 490 nm; in experiment [3], 0.049 OD 490 nm; with human GDF-8 (human) [4] it was 0.0907 OD 490 nm; in experiment [5] it was 0.0919 OD 490 nm; in the experiment with human GDF-8 (human) [6] it was 0.0519 OD 490 nm.

B1: C12 Fab (Fab, V domains shown)
VH: QLQLQESGPGLVKPSETLSLTCTVSGFSLRKVGSSVSWIRQPPGKGLEWIGHIYWDDDKRLNPSLRNRVTISVDTSKNQFSLKLSSVTAADTAVYYCARRAITTVIGGGTFDLWGQGTLVTVSS
VL: DIQMTQSPSSLSASVGDRVTITCSASSSISYMHWYQQKPGKAPKLLIYDTSKLARGVPSRFSGSGSGTDFTLTISSLQPEDFATYYCQQWYLNPLTFGGGTKVEIKR
Regarding B1, the IC50 in experiment [7] is 0.25 µg/mL.
